{
  "source": "patent US20190106498A1",
  "about": "“TREATMENT FOR ACUTE MYELOID LEUKEMIA” (priority 2017, published 2019)",
  "molecules": {"B1": {"name": "ARGX-110: IgG1 anti-CD70 antibody with defucosylated Fc region; VH SEQ ID NO: 4, VL SEQ ID NO: 8 (antibody, V domains shown)", "VH": "EVQLVESGGGLVQPGGSLRLSCAASGFTFSVYYMNWVRQAPGKGLEWVSDINNEGGTTYYADSVKGRFTISRDNSKNSLYLQMNSLRAEDTAVYYCARDAGYSNHVPIFDSWGQGTLVTVSS", "VL": "QAVVTQEPSLTVSPGGTVTLTCGLKSGSVTSDNFPTWYQQTPGQAPRLLIYNTNTRHSGVPDRFSGSILGNKAALTITGAQADDEAEYFCALFISNPSVEFGGGTQLTVLG", "modifications": "IgG1, defucosylated Fc; Custom antibody fragment"}},
  "key": {"[1]": {"conditions": "in vivo", "experimental": "Subjects received a loading dose of ARGX-110 on Day −14, followed by administration of ARGX-110 in combination with standard doses of AZA. Doses of ARGX-110 were administered intravenously every 2 weeks (loading dose at Day −14 and further doses on Days 3 and 17) in combination with standard doses of AZA to determine the dose limiting toxicity (see FIG. 4). The first patient of each cohort was monitored until day 7 before a second patient was included. […] The ARGX-110 dose level in the first cohort in Phase I was 1 mg/kg body weight.\nAll subjects in the study received a single loading dose of ARGX-110 on Day −14, at the same dose level as the bi-weekly dose. Subjects in Phase I of the study received one of the following treatments: • Cohort 1: 1 mg/kg body weight IV on Days 3 and 17 of a 28-day cycle • Cohort 2: 3 mg/kg body weight IV on Days 3 and 17 of a 28-day cycle • Cohort 3: 10 mg/kg body weight IV on Days 3 and 17 of a 28-day cycle • Cohort 4: 20 mg/kg body weight IV on Days 3 and 17 of a 28-day cycle"}, "[2]": {"test_system": "LSCs", "assay": "Methylcellulose colony assays of patient mononuclear cells (LSC number/frequency, ELDA)", "type": "in vivo, human", "procedure": "FIGS. 9A-9F αCD70 mAb treatment reduces CD34^+CD38^− AML stem/progenitor cell frequencies in AML patients. (FIG. 9A) Colony formation of P2. 10^4 BM MNCs of patient P002 at diagnosis (SCR) and 14 days after administration of ARGX110 (1 mg/kg i.v., time point 0, or C1D1) were plated in methylcellulose and colony formation was assessed 2 weeks later. (FIG. 9B) Fold change in colony formation of different patients treated with indicated doses of ARGX110. (FIG. 9C) Colony formation at limiting dilution from P2. (FIG. 9D) Stem cell frequencies at SCR and Time point 0 determined in enhanced limiting dilution experiments for P2 and different patients treated with indicated doses of ARGX110. Data are represented as mean±S.D. Statistics: (a, b, e) Student's t-test; (FIG. 9E): χ^2 test; **, P<0.01; ***, P<0.001. (FIG. 9F) Colony formation of P2. 10^4, 5×10^3, 10^3 and 10^2 BM MNCs of patient P002 at diagnosis (SCR), 14 days after administration of ARGX110 (1 mg/kg i.v., time point 0, or C1D1) and after combination treatment (“combi”) were plated in methylcellulose and colony formation was assessed 2 weeks later.\nTo assess bone marrow blasts, bone marrow aspirates taken at the various time points were analysed. Methylcellulose colony assays using FACS sorted monocytes (mononuclear cells (CD45^dim) were selectively sorted by excluding doublets, dead cells and lymphocytes using Annexin V and antibodies for CD19 and CD4/CD8) were used to assess the number of LSCs in the bone marrow. In addition, bone marrow blast percentages were also assessed by cell morphology and flow cytometric analysis.\nTo further explore the impact of the mono and combination therapies on the LSC populations in patients, methylcellulose colony assays using FACS sorted ex vivo monocytes were performed. Mononuclear cells (CD45^dim) were selectively sorted by excluding doublets, dead cells and lymphocytes using Annexin V and antibodies for CD19 and CD4/CD8 and serially plated on methylcellulose for 14 days.\nBone marrow aspirate taken at day 1 was compared to bone marrow aspirate taken before administration of the ARGX-110 loading dose. Methylcellulose colony assays using FACS sorted monocytes (mononuclear cells (CD45^dim) were selectively sorted by excluding doublets, dead cells and lymphocytes using Annexin V and antibodies for CD19 and CD4/CD8) were used to assess the number of LSCs in the bone marrow."}, "[3]": {"test_system": "Numb", "assay": "Numb expression in purified AML blasts of patients", "type": "in vivo, human", "conditions": "monotherapy at C1D1; combination at C4D1", "procedure": "FIGS. 8A-8B Purified AML blasts (FACS gate: CD45^dim SSC^low AV^−CD4^−CD8^−CD19^−) were fixed, permeabilized and cells incubated overnight with α-Numb antibody, followed by staining with a fluorescently labeled secondary antibody. DAPI was used to counterstain for DNA. Samples were acquired on an ImageStreamX® Mark II imaging flow cytometer (Amnis/EMD Millipore) and analyzed using INSPIRE™ and IDEAS® software (Amnis/EMD Millipore). FIG. 8A) Total Numb expression (Mean fluorescence intensity) was determined across the slide for bone marrow samples of one patient harvested at baseline (“screening”), after ARGX-110 monotherapy (C1D1) and after combination treatment (C4D1). FIG. 8B) Symmetrically (SD) and asymmetrically dividing (AD) cells were scored for a bone marrow patient sample at baseline (“before”) and after ARGX-110 monotherapy (after αCD70).\nThe level of asymmetric division in a population of LSCs can be determined by measuring the level of a cell fate determinant such as the Numb protein (Riether et al., J Exp Med. 2017 February; 214(2): 359-380, incorporated herein by reference). Increased Numb expression is indicative of an increase in asymmetric division and therefore an increase in myeloid differentiation and decreased LSC populations."}, "[4]": {"assay": "Phase I/II trial: peripheral blood counts", "type": "in vivo, human", "from_the_text": "By C2D17, the percentage of blasts in peripheral blood was 0.8% by flow cytometry and 0% by cell morphology.\nPatient 1001003 is a person with AML with myelodysplasia-related changes by WHO classification (AML-M2 by FAB classification) and 24% bone marrow blasts. […] Blast percentage at C1D1 was stable."}, "[5]": {"conditions": "patient 1001002, loading dose 1 mg/kg"}, "[6]": {"conditions": "patient 1001002, 1 mg/kg with AZA, C3D17"}, "[7]": {"conditions": "patient 1001003, with AZA, C2D1"}},
  "data": [
    {"molecule": "B1", "values": [
      {"measurement": "Lung infection, Grade 3-5 adverse events: Total", "setting": "[1]", "result": 1},
      {"measurement": "Tooth Infection, Grade 3-5 adverse events: Total", "setting": "[1]", "result": 1},
      {"measurement": "Lung infection, Grade 3-5 adverse events: (patients)", "setting": "[1]; 1 mg/kg", "result": "1 (1)"},
      {"measurement": "Lung infection, Grade 3-5 adverse events: Events", "setting": "[1]; 1 mg/kg", "result": "1 (1)"},
      {"measurement": "Tooth Infection, Grade 3-5 adverse events: (patients)", "setting": "[1]; 3 mg/kg", "result": "1 (1)"},
      {"measurement": "Tooth Infection, Grade 3-5 adverse events: Events", "setting": "[1]; 3 mg/kg", "result": "1 (1)"},
      {"measurement": "reduction in LSC frequency compared to baseline", "setting": "[2]; FIG. 9F, after monotherapy (C1D1) and combination therapy (C4D1)", "result": "~24", "unit": "fold"},
      {"measurement": "number of cells per colony", "setting": "[2]; following therapy (data not shown)", "result": "reduced"},
      {"measurement": "circulating LSC levels", "setting": "[2]; monotherapy, then combination", "result": "reduced"},
      {"measurement": "factor of reduction of the number of LSCs in the bone marrow", "setting": "[2]; patient 1001001, single dose 1 mg/kg, day 1 vs before loading dose, ELDA", "result": "140,000"},
      {"measurement": "cell number per colony", "setting": "[2]; [5]", "result": "reduced"},
      {"measurement": "factor of reduction of LSCs in the bone marrow", "setting": "[2]; [5]", "result": 2},
      {"measurement": "decrease of colony formation", "setting": "[2]; patient 1001002, loading dose 1 mg/kg, all informative serial dilution concentrations", "result": "greater than 50%"},
      {"measurement": "Numb expression", "setting": "[3]", "result": "increased"},
      {"measurement": "Hb", "setting": "[4]; [6]", "result": 10.2, "unit": "g/dL"},
      {"measurement": "absolute neutrophil count (ANC)", "setting": "[4]; [6]", "result": 0.97, "unit": "G/L"},
      {"measurement": "platelets", "setting": "[4]; [6]", "result": 128, "unit": "G/L"},
      {"measurement": "ANC", "setting": "[4]; [7]", "result": 0.38, "unit": "G/L"},
      {"measurement": "Hb", "setting": "[4]; [7]", "result": 9.2, "unit": "g/dL"},
      {"measurement": "platelets", "setting": "[4]; [7]", "result": 98, "unit": "G/L"}
    ]}
  ]
}
